B1: GST-fusion protein containing only the Habc domain (1–146) of Stx3 (domain or fragment, rat, UniProt Q08849 1-146, looked up)
chain: MKDRLEQLKAKQLTQDDDTDEVEIAIDNTAFMDEFFSEIEETRLNIDKISEHVEEAKKLYSIILSAPIPEPKTKDDLEQLTTEIKKRANNVRNKLKSMEKHIEEDEVRSSADLRIRKSQHSVLSRKFVEVMTKYNEAQVDFRERSK
notes: syntaxin 3 (Stx3), rat, N-terminal region with the Habc domain, residues 1-146; Cloned into pGEX-4T-3, which by my knowledge puts GST at the N-terminus; also called GST-Stx3-Habc; GST-Stx3-1–146; source: E. coli Rosetta 2, purified (glutathione agarose, eluted with glutathione, dialyzed)
B2: GST fusion protein of the constitutively open mutant of cytoplasmic region Stx3 (L165A/E166A) (domain or fragment, rat, UniProt Q08849 1-265, looked up)
chain: MKDRLEQLKAKQLTQDDDTDEVEIAIDNTAFMDEFFSEIEETRLNIDKISEHVEEAKKLYSIILSAPIPEPKTKDDLEQLTTEIKKRANNVRNKLKSMEKHIEEDEVRSSADLRIRKSQHSVLSRKFVEVMTKYNEAQVDFRERSKGRIQRQLEITGKKTTDEEAAEMLESGNPAIFTSGIIDSQISKQALSEIEGRHKDIVRLESSIKELHDMFMDIAMLVENQGEMLDNIELNVMHTVDHVEKARDETKRAMKYQGQARKKLI
notes: syntaxin 3 (Stx3), rat, cytoplasmic region, residues 1-265, with LE165/166AA; Made by site-directed mutagenesis in the Stx3 (1–265) pGEX-4T-3 plasmid; also called open-conformation mutant (LE165/166AA); source: E. coli Rosetta 2, purified (glutathione agarose, eluted with glutathione, dialyzed)

What was measured:
[1] = biological target: T1, Purified bovine ubiquitin (bovine, UniProt P0CG53 1-76); experiment: SPR; Biacore 2000, room temperature, HBS-EP buffer (10 mM HEPES pH 7.4, 150 mM NaCl, 3 mM EDTA, 0.005% Tween-20); GST-fusion proteins captured on a CM5 chip with a GST capture kit, free ubiquitin flowed over; settings: both partners purified
T1 construct: ubiquitin, bovine, the cut product of the ubiquitin precursors; also called free ubiquitin; mono-ubiquitin in solution; source: bought: Millipore-Sigma (U6253)

[2] = biological target: T2, ubiquitin on ubiquitin-coated agarose beads (UniProt P0CG53 1-76); experiment: pull-down; ubiquitin-coated agarose beads with 1 µM purified GST-fusion protein in Buffer A (25 mM HEPES–KOH pH 7.4, 125 mM potassium acetate, 2.5 mM magnesium acetate, 5 mM EGTA) + 1% FBS, 2 h at room temperature; uncoated CL4B beads as control; immunoblot with anti-GST or anti-Stx3; settings: both partners purified
T2 construct: ubiquitin, the cut product of the ubiquitin precursors; Coupled to agarose; also called ubiquitin-coated beads; ubiquitin-coated (U) agarose beads; source: bought: Millipore-Sigma (ubiquitin-coated agarose)

Binder | Kd [1] [mM] | fold change of pull-down against the entire Stx3 cytoplasmic domain [2] [fold] | fold change of pull-down against wild-type Stx3 [2] [fold]
B1 | 1.36 | 3.78 | –
B2 | – | – | 1.73
